Measurements published in PMC3355305, “Localized Dimerization and Nucleoid Binding Drive Gradient Formation by the Bacterial Cell Division Inhibitor MipZ” (Molecular Cell, 2012).
Read-outs that look alike come from different tables or passages of the source.

Target: MipZ dimer
Test: Effect of ParB and parS-containing plasmid DNA on the ATPase activity of MipZ
Assay type: biochemical, Caulobacter crescentus
Details: for Kd: read-out: K
Text: Figure 3 Interaction of MipZ with FtsZ and ParB (A) Effect of different mutations on the activity of MipZ. Strains MT177 (WT), DK2 (K13A), MT178 (G14V), MT179 (K18Q), and MT197 (D42A) were cultivated for 8 hr in conditions that prevent expression of wild-type mipZ while inducing expression of the indicated mipZ-yfp allele (the scale bar represents 2 μm). (B) Effect of MipZ and its mutant derivatives on the GTPase activity of FtsZ. Shown are the turnover numbers (kcat) of FtsZ in the absence of additional proteins (–) or in the presence of different MipZ variants or BSA. Data represent the average of at least three independent experiments (±SD). (C and D) SPR analysis of the interaction between MipZ and ParB. ParB (3800 RU) was immobilized on a sensor chip and probed with the indicated MipZ proteins (6 μM) in the presence of ADP (C) or ATP (D). (E) Colocalization of mutant MipZ variants with ParB. Strains DK3 (K13A), DK5 (G14V), DK6 (K18Q), and DK7 (D42A) were induced for 8 hr to synthesize CFP-ParB and the indicated MipZ-YFP variants in place of wild-type MipZ (the scale bar represents 2 μm). […] (F) Two-hybrid analysis of the interaction between MipZ and ParB. E. coli BTH101 was transformed with pairs of plasmids encoding the indicated derivatives of the T18 and T25 fragments of adenylate cyclase, respectively. Interaction is evidenced by the formation of red colonies. Positive control (+): T25-zip:T18-zip. (G) Effect of ParB on the ATPase activity of MipZ. The average turnover number (kapp) of MipZ was determined over a range of different MipZ concentrations. When appropriate, the reactions were supplemented with ParB and/or parS-containing plasmid DNA (pMT428; 3.6 kb). The data were approximated by the model used in Figure 2F, yielding the following K and kcat values: MipZ alone (7.1 μM and 0.61 min^−1), + ParB (2.6 μM and 0.77 min^−1), + DNA (6.0 μM and 1.5 min^−1), + ParB and DNA (1.6 μM and 1.6 min^−1). See also Figure S4.
Previous work has shown that, in the presence of parS-containing DNA, ParB stimulates the ATPase activity of ParA/Soj up to 60-fold ([Leonard et al., 2005; Scholefield et al., 2011]), probably by accelerating the rate of nucleotide hydrolysis. […] To clarify this issue, we reanalyzed the concentration dependence of MipZ's ATPase activity (compare Figure 2F) in the presence of both ParB and/or a plasmid that carried a chromosomal fragment containing all predicted C. crescentus parS sites (Figure 3G). […] Consequently, the MipZ dimer might be able to interact with DNA independently of ParB (as detailed below), leading to conformational adjustments that enhance its hydrolytic potential. […] Collectively, these findings argue against a role of ParB as an ATPase-activating factor. […]
obtained from crystals flash frozen in a solution of 95% 2 mM, sa mp le s were taken and analyzed for the amount ethanol/50 mM Tris (pH 8.5), and collected at ID23-2, of [α-32P]-GDP produced in the reaction as described ESRF (Grenoble, France). For apo-MipZ in crystal above. form 2, 768 standard conditions were screened in 200 nl To analyze the concentration dependence of MipZ’s sitting drops using a Microsys 4004 Cartesian robotics ATPase activity, varying amounts of MipZ were system and MipZ at a concentration of 10 mg/ml. incubated in buffer P containing 2 mM [α-32P]-ATP and Crystals obtained in a buffer containing 100 mM Hepes 0.3 mg/ml bovine serum albumin and assayed for (pH 7.5), 10% PEG 10000, 4% ethylene glycol and 30% hydrolytic activity as described above. glycerol were flash-frozen, and data were collected at To determine the effect of ParB on MipZ’s ATPase ID23-1, ESRF. activity, varying amounts of MipZ were incubated with All crystals were indexed and integrated using the ParB (4.5 µM) and/or plasmid pMT428 (3.6 kb, 0.2 MOSFLM package and further processed using the µM), which bears a chromosomal fragment containing […]

B1: MipZ: P loop ATPase and cell division inhibitor of Caulobacter crescentus; hexahistidine-tagged in vitro, YFP fusion in FRAP (protein)
chain: MAETRVIVVGNEKGGAGKSTIAVHLVTALLYGGAKVAVIDLDLRQRTSARFFENRRAWLDNKKIELPEPLALNLSDNDVALAERPEEEQVAGFEAAFARAMAECDFILIDTPGGDSAITRMAHGRADLVVTPMNDSFVDFDMLGTVDPVTLELTKPSLYSLTVWEGRKQRALSGQRQAMDWVVLRNRLATTEARNRKRLEDRLNALAKRVGFRIGPGLRDRVIYRELFPFGLTIADLSPQVRPVPVSLQHLAARQELRALMHSLGLSAYSGETMLAAQ
modifications: left off: His6, end not stated, state not stated
notes: hexahistidine-tagged in vitro, YFP fusion in FRAP
Question: Which results are given for B1?
Answer: Kd (+ DNA (pMT428, 0.2 µM)): 6 µM; Kd (+ ParB (4.5 µM)): 2.6 µM; Kd (+ ParB and DNA): 1.6 µM; kcat (MipZ alone): 0.0102 s⁻¹; Kd (MipZ alone): 7.1 µM; increase in the catalytic activity of the dimeric complex (kcat) (upon addition of DNA): ~2 fold; decrease in the apparent equilibrium dissociation constant of the dimeric complex (upon addition of ParB): ~4 fold
